Assays:
[1] = biological target: GST-YFP-6His-PANT^R20A (Arabidopsis); assay: MST
[2] = biological target: GST-YFP-6His-PANT^WT (PANT domain of Arabidopsis SRFR1) (Arabidopsis); assay: MST

Kd [1]: 956 µM
Kd [2]: 395 µM
Substance: synthetic P1 peptide (P1 segment of IDR1 of SRFR1)

Source: article doi:10.1101/2024.04.02.587845
